kcat, fold change against the full HA peptide complex data for one substance are collected here from paper PMC7062162.

The target of the assay is HA 2NΔ peptide-DR1 complex (human | influenza A virus) (UniProt P03437).

Turning to “soluble recombinant HLA-DM (DMA*0101/DMB*0101) (complex)”, the kcat, fold change against the full HA peptide complex came to 5 fold.
